Values quoted from earlier work as cited in publication PMC6006206.

Biological target: SufE (UniProt A7ZME4)
Sequence of UniProt A7ZME4 (A7ZME4 whole entry): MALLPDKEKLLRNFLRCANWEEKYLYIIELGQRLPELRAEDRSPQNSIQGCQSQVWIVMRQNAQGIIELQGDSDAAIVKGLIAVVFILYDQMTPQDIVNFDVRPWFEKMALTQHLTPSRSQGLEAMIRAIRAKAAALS

Substance: SufS (from UniProt A7ZME5)
- Kd: 360 nM
